# According to the supplement of paper PMC10126150:
# ± gives the standard deviation of the averaged measurements.
# Tested on: ATP
# Assay: switch fluorescence ratio, 500 uM ATP over buffer (Cy3 cluster intensity, sum of 5 cycles each) (fold (ratio)); higher = stronger signal-on switching upon ATP binding; sequences stand for … in TCGTCGGCAGCGTCAGATGTGTATAAGAGACAGTTTTTTTTTTTTTTTTTTTTTTTTT…TC
# Conditions: aptamer strand: ATP DNA aptamer (quencher-CACCTGGGGGAGTATTGCGGAGGAAGG + anchor), 100 nM annealed; ATP concentration: 500 uM
# In short: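 The quencher-labelled ATP aptamer, at 100 nM, was annealed to Cy3-labelled switching-strand clusters on a modified Illumina MiSeq flow-cell. The clusters were imaged in selection buffer, then after 15 min with 500 uM ATP at 22 °C, and this buffer/ATP cycle ran five times with NaOH stripping and re-annealing between runs. Per-cluster fluorescence ratios, summed target-cycle over summed buffer-cycle Cy3 intensity, were averaged per switch-domain sequence. Clusters outside 100-1000 RFU were excluded.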
# 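Note: ATP exposure 15 min at 22 °C before imaging.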
row,Sequence,switch fluorescence ratio
1,CGGGCCGGGC,0.983 ± 0.029
2,CGGGCCGGGG,1.02 ± 0.033
3,CGGGCGCGGA,1.01 ± 0.048
4,CGGGCGCGTG,0.978 ± 0.053
5,CGGGCGGGAT,1.04 ± 0.029
6,CGGGCTAACA,0.972 ± 0.017
7,CGGGCTAAGA,1.02 ± 0.041
8,CGGGCTTGGT,1.01 ± 0.032
9,CGGGCTTTAA,0.995 ± 0.026
10,CGGGCTTTAT,1.006 ± 0.0073
11,CGGGCTTTGG,1.01 ± 0.035
12,CGGGGAAAGT,0.996 ± 0.015
13,CGGGGACAGA,0.984 ± 0.041
14,CGGGGACGGC,0.98 ± 0.025
15,CGGGGACTTC,1.02 ± 0.019
16,CGGGGATTGA,0.97 ± 0.03
17,CGGGGCAAGG,0.984 ± 0.057
18,CGGGGCACCA,0.99 ± 0.032
19,CGGGGCAGGG,1.01 ± 0.062
20,CGGGGCGCGC,1.02 ± 0.044
21,CGGGGCGGTG,1.02 ± 0.037
22,CGGGGCGTGT,0.988 ± 0.046
23,CGGGGCTAGC,1.02 ± 0.026
24,CGGGGCTATG,0.997 ± 0.0053
25,CGGGGCTGCT,1.01 ± 0.018
26,CGGGGCTGTG,1 ± 0.013

row,Sequence,switch fluorescence ratio
1,CGGGGGAAAA,1.03 ± 0.054
2,CGGGGGAAAG,1.01 ± 0.041
3,CGGGGGAAGT,0.981 ± 0.068
4,CGGGGGACAG,1.03 ± 0.066
5,CGGGGGACTA,0.985 ± 0.015
6,CGGGGGAGCA,1.01 ± 0.017
7,CGGGGGCAAG,1.07 ± 0.016
8,CGGGGGCGGT,0.998 ± 0.03
9,CGGGGGGA,1.39 ± 0.54
10,CGGGGGGAGA,1.03 ± 0.061
11,CGGGGGGCCA,1.016 ± 0.0048
12,CGGGGGGGAG,1.01 ± 0.067
13,CGGGGGGGGC,1.02 ± 0.044
14,CGGGGGTCCG,0.926 ± 0.087
15,CGGGGGTGTA,0.995 ± 0.026
16,CGGGGGTGTG,0.993 ± 0.035
17,CGGGGTAGTG,0.999 ± 0.02
18,CGGGGTATTC,0.964 ± 0.078
19,CGGGGTGAGA,0.9809 ± 0.0069
20,CGGGGTGCAC,1.05 ± 0.023
21,CGGGGTGTCT,1.02 ± 0.071
22,CGGGGTGTGT,1.01 ± 0.023
23,CGGGGTGTTT,1.012 ± 0.0055
24,CGGGGTTCGT,0.983 ± 0.028
25,CGGGGTTGAA,0.998 ± 0.03
26,CGGGGTTTGA,1.02 ± 0.028

row,Sequence,switch fluorescence ratio
1,CGGGGTTTGT,1.01 ± 0.011
2,CGGGGTTTTT,1.03 ± 0.12
3,CGGGTAAGT,1 ± 0.022
4,CGGGTAGGTA,1 ± 0.012
5,CGGGTCCGTA,0.9751 ± 0.004
6,CGGGTCGGGG,0.998 ± 0.025
7,CGGGTCTTGG,1.03 ± 0.023
8,CGGGTGAAGG,1.06 ± 0.049
9,CGGGTGGCAG,1.01 ± 0.061
10,CGGGTGGCGG,0.994 ± 0.012
11,CGGGTGGTGC,1.014 ± 0.0086
12,CGGGTGGTTC,0.994 ± 0.012
13,CGGGTGTAAG,1.01 ± 0.033
14,CGGGTGTCAC,1.06 ± 0.024
15,CGGGTGTGTC,1.045 ± 0.0042
16,CGGGTTCCAC,1.01 ± 0.05
17,CGGGTTTAAA,1 ± 0.011
18,CGGGTTTGTC,1 ± 0.035
19,CGGGTTTTAC,1.01 ± 0.039
20,CGGGTTTTCG,0.988 ± 0.018
21,CGGTAAAGCG,0.9808 ± 0.0071
22,CGGTAATGTT,1 ± 0.027
23,CGGTACACGT,1.0186 ± 0.00031
24,CGGTACCCAT,1.01 ± 0.018
25,CGGTACCGTG,0.9844 ± 0.007
26,CGGTACGACG,0.94 ± 0.019

row,Sequence,switch fluorescence ratio
1,CGGTACGAGC,0.992 ± 0.046
2,CGGTACGGAT,0.989 ± 0.043
3,CGGTACTTGG,0.967 ± 0.05
4,CGGTAGACCT,1.105 ± 0.0037
5,CGGTAGGACA,1 ± 0.011
6,CGGTAGGGTT,0.978 ± 0.022
7,CGGTAGTTCG,0.955 ± 0.038
8,CGGTATAACG,0.997 ± 0.043
9,CGGTATACTG,1.04 ± 0.049
10,CGGTATGGCT,0.9689 ± 0.0062
11,CGGTCAGTTT,1.025 ± 0.0089
12,CGGTCATATT,0.9892 ± 0.0037
13,CGGTCCCGGC,1.03 ± 0.05
14,CGGTCCGTTT,1.02 ± 0.042
15,CGGTCCTATG,0.993 ± 0.029
16,CGGTCGGTTG,1.06 ± 0.022
17,CGGTCTACCT,1.02 ± 0.014
18,CGGTCTATAG,1.02 ± 0.053
19,CGGTCTGCGA,1.05 ± 0.013
20,CGGTGACTGA,0.9569 ± 0.008
21,CGGTGAGGGA,0.978 ± 0.044
22,CGGTGAGGGT,0.9863 ± 0.0071
23,CGGTGAGTGG,1.01 ± 0.02
24,CGGTGGCGGG,1.004 ± 0.0095
25,CGGTGGGACG,1.02 ± 0.022
26,CGGTGGGGAC,1.04 ± 0.13

row,Sequence,switch fluorescence ratio
1,CGGTGGGGCA,1.1 ± 0.13
2,CGGTGGGTGT,0.931 ± 0.011
3,CGGTGGTCCA,0.997 ± 0.017
4,CGGTGGTCGC,0.984 ± 0.019
5,CGGTGGTGGG,1.031 ± 0.0066
6,CGGTGTTAAC,0.957 ± 0.036
7,CGGTGTTGTC,0.964 ± 0.0037
8,CGGTTAAAGC,0.94 ± 0.014
9,CGGTTAACGT,1.01 ± 0.033
10,CGGTTAATTT,1.01 ± 0.027
11,CGGTTACCGT,0.986 ± 0.013
12,CGGTTACGAC,1.02 ± 0.021
13,CGGTTACGAG,0.9952 ± 0.0029
14,CGGTTAGGAA,1.01 ± 0.025
15,CGGTTAGGGA,0.965 ± 0.03
16,CGGTTATCGG,1.002 ± 0.0031
17,CGGTTCGGCG,0.987 ± 0.0099
18,CGGTTGCCCG,0.979 ± 0.12
19,CGGTTGGCCT,0.9978 ± 0.0069
20,CGGTTGGGTA,0.977 ± 0.014
21,CGGTTGGGTG,0.97348 ± 6.3e-05
22,CGGTTGTAGG,0.999 ± 0.015
23,CGGTTGTCGG,0.997 ± 0.013
24,CGGTTGTGAG,1.01 ± 0.031
25,CGGTTGTGTA,1.03 ± 0.023
26,CGGTTTACGG,0.986 ± 0.011

row,Sequence,switch fluorescence ratio
1,CGGTTTATGA,0.968 ± 0.016
2,CGGTTTGAGT,0.983 ± 0.019
3,CGGTTTGGCA,0.992 ± 0.014
4,CGGTTTGTGT,0.998 ± 0.029
5,CGGTTTTGGC,0.998 ± 0.019
6,CGGTTTTTTT,0.978 ± 0.016
7,CGTAAAACTA,1.03 ± 0.042
8,CGTAAAAGAC,1.23 ± 0.19
9,CGTAAAATAC,2.85 ± 0.056
10,CGTAACCTTG,1.023 ± 0.0071
11,CGTAACGTGG,0.9938 ± 0.0078
12,CGTAATAGAT,1.02 ± 0.026
13,CGTAATGGGG,1.022 ± 0.01
14,CGTACAGATA,0.994 ± 0.027
15,CGTACAGTGG,1.02 ± 0.046
16,CGTACGGACG,0.984 ± 0.021
17,CGTACGGCGG,1.015 ± 0.0038
18,CGTACTCGTA,1.01 ± 0.019
19,CGTAGAAAAG,0.998 ± 0.025
20,CGTAGACGAG,1.03 ± 0.016
21,CGTAGACTCG,1.02 ± 0.05
22,CGTAGAGGGC,0.986 ± 0.034
23,CGTAGATAGC,1.07 ± 0.02
